Assay results taken from PMC4128677, “Somatostatin Analogues for Receptor Targeted Photodynamic Therapy” (PLoS ONE, 2014).
Like-named read-outs stand apart in the source and are kept apart here. Positions of bridges follow the written chain, without caps; N, C: chain ends. Non-standard residues stand in square brackets, D forms with d. Residues, ends and D or L forms follow the SMILES beside them. *: point of attachment. X1 = C=Cc1c(C)c2cc3nc(c(CC(=O)O)c4[nH]c(cc5nc(cc1[nH]2)C(C)=C5CC)c(C)c4C(=O)O)[C@@H](CCC(=O)*)[C@@H]3C

Key:
sst2 = target: T1, sst2 (Homo sapiens, UniProt P30874); test: Displacement of [125I]-SS14 binding, membrane preparations of K562 sst2+ cells
T1 construct: expressed in transfected cells; host or cells: K562 (human erythroleukemic) cells stably transfected with LZRS-lyt2-IRES-sst2; membrane preparations
Protocol: Copy DNA of the human sst2 receptor was merged into a LZRS-lyt2-IRES plasmid background (lyt2 being the mouse CD8 receptor). The calcium precipitation method was used to transfect non-adherent K562 cells with the LZRS-lyt2-IRES-sst2. Expression of lyt2 was evaluated by means of FACS analysis using FITC labeled anti-mouse CD8 antibody (BD PharMingen, Netherlands), 1∶160 diluted in FACS-buffer. Clones were grown form Lyt2 positive isolated cells. Vital clones were cultured and tested in time for stability of sst2 receptor expression, by means of both FACS analysis (using FITC labeled octreotate 200 nM) as well as sst2 mRNA expression by RT-PCR as previously described. […] K562 cells were grown in RPMI 1640 containing L-glutamine, 10% heat-inactivated FCS, 50 µg/ml penicillin and 50 µg/ml streptomycin, and were maintained in an incubator at 37°C in an humidified atmosphere of 5% CO2.
The binding potency of Ce6-conjugates to sst2 on K562 sst2 ^+ cells was evaluated on cell membrane preparations.

[1] = Steady-state absorption and fluorescence in PBS; format: physicochemical; conditions: PBS pH = 7.4
Protocol: Steady-State Fluorescence and Absorption Measurements. The fluorescence quantum yields (ΦF) of Ce6 and conjugates in PBS pH 7.4 were determined by a relative method. Ce6 in the buffer at pH 7.4 with the quantum yield of 0.18 [24,32,33] was used as a reference.
The absorption profile of Ce6 and conjugate in PBS of concentration (0.06–1µM) was recorded in Shimadzu spectrophotometer (UV-2101 PC, Duisburg, Germany).
The fluorescence emission of photosensitizers was recorded in a Perkin-Elmer spectrofluorimeter (LS 50B, Massachussetts, USA). Light at 408 nm was used for excitation. The concentration range of compounds matched to the O.D. up to 0.1.

[2] = Photobleaching under 652 nm irradiation in PBS; format: physicochemical
Protocol: Photobleaching measurements. The loss of photosensitizer absorbance and fluorescence during irradiation was used to monitor photobleaching. Solutions of Ce6 and Ce6-conjugates were prepared in PBS pH = 7.4. The concentration of photosensitizers were adjusted so that all absorb the same number of photons at irradiated region (O.D. = 0.014 at the λirr. = 652 nm (Biolitec pharma, UK). Data was acquired in quartz cuvettes in aerobic conditions using stirring under uniform, measured irradiation at 5 mWcm^-2. At intervals, the cuvette was removed from magnetic stirrer and absorption and fluorescence emission spectrum (λexc = 405 nm) acquired. The initial absorption bleaching rate constants (kblA) for Ce6 and conjugates were evaluated as reported.

[3] = Singlet oxygen quantum yield (SOSGR photooxidation); format: physicochemical; conditions: PBS pH = 7.4; SOSGR 1 µM; relative to ΦΔ = 0.64 of Ce6; in duplicate
Protocol: Singlet Oxygen Quantum Yield Measurements. Photooxidation of Singlet Oxygen Sensor Green Reagent (SOSGR) (Molecular Probes, NL) was used to determine the singlet oxygen formation by Ce6 and Ce6-conjugates. We used SOSGR because of its high selectivity for singlet oxygen and low sensitivity to hydroxyl radicals/superoxides. Stock solution of SOSGR (5 mM) was prepared in methanol. The final concentration of SOSGR within the photosensitizer solution in PBS pH 7.4 was 1 µM. The irradiation was performed the same as for photobleaching measurements described above. The singlet oxygen quantum yields (Φ?) of conjugates in PBS were determined in duplicate by a relative method with a Φ? = 0.64 of Ce6 in the PBS at pH 7.4 as reference.

[4] = pH titration of fluorescence/absorbance (pKa); format: physicochemical
Protocol: pH measurements. The pH titration of PBS was performed with HNO3 and NaOH over pH 4.0-8.5. The final concentration of Ce6 and Ce6-conjugates in solution was 0.8 µM. The pH was measured by Sentron pH meter (Sentron Europe, NL) and the absorption and fluorescence emission (λexc = 408 nm) profiles of solutions were recorded. The inflection point of titration curves (pKa) were evaluated as reported. Briefly, the results of fluorescence titrations are presented in terms of a plot of fluorescence intensity as a function of pH with the constant concentration of the compound used throughout measurements. However, variations of fluorescence intensity are due to at least two contributions: the changes of molar extinction coefficient (differed absorbed intensity) and the changes of quantum efficiency with pH. To eliminate the influence of the molar extinction coefficient variations, the ratio of fluorescence intensity at the peak position to the absorbance at the excitation wavelength was plotted, followed by sigmoidal function fitting procedure (Figures S2-S4).

[5] = 1-Octanol/PBS partition coefficient; format: physicochemical
Protocol: Partition coefficient. Stock solutions of Ce6 and conjugates (0.6 mM) were prepared in DMSO. Lipophilicity was characterized by their partition coefficient Poct/buffer = Coct/Cbuffer between two solvents 1-octanol (oct) and PBS, pH = 7.4 (buffer). Measurements were carried out in duplicates as described by Cunderlikova et al.

K562 sst2+ cells [6] = test: In vitro PDT phototoxicity, K562 sst2+ cells; format: cell-based, human; conditions: K562 sst2+; 5 J.cm^−2, 652 nm
Protocol: (§1) In vitro PDT experiments were performed to determine the phototoxicity of free Ce6 and conjugates. K562 sst2+ and WT cells were seeded in L-polylysine-coated (10 µg/ml) 96-well (8×10^3/well) and 24-well (4×10^4/well) and incubated overnight in 5% CO2 at 37°C. […] After incubation, cells were washed. Fresh serum-free medium was added, and cells were illuminated with 652 nm to a dose from 0.5 to 5 J cm^−2 at 5 mW.cm^−2. Thereafter, serum-containing medium was added and cells were allowed to grow for an additional 3 days in 5% FCS medium. Toxicity was determined by: measurement of DNA contents using the bisbenzimide fluorescent dye (Hoechst 33258, Boehring Diagnostics, CA, USA) and measurement of mitochondrial dehydrogenase cleavage of WST-1 reagent (Roche Diagnostics, Germany), [39]. Experiments were done in triplicates.

K562 WT cells = test: In vitro PDT phototoxicity, K562 WT cells; format: cell-based, human; conditions: 5 J.cm^−2, 652 nm; with or without Octreotide co-treatment
Protocol: as §1

K562 sst2+ cells [7] = test: Cellular uptake in K562 sst2+ and WT cells; format: cell-based, human; conditions: 1 µM; serum-free and 5% FCS medium; fluorescence of lysate, λexc = 405 nm
Protocol: Stock solutions of Ce6 and Ce6-conjugates (1 mM) were dissolved in 80% DMSO and were stored in the dark at −20°C. Before experiments, the solutions were diluted to a concentration of 0.1 mM in 20% DMSO. K562 sst2+ or WT (3×10^5) in 1 ml RPMI 1640 serum-free or supplemented with 5% FCS were incubated with Ce6 or with conjugate (1 µM) for 15 min to 24 h in the dark at 37°C. After incubation, the cells were centrifuged, cell pellet dissolved in 2% SDS and fluorescence emission spectra (λexc = 405 nm) recorded. Photosensitizer concentrations were calculated in triplicate according to a calibration curve generated by mixing a known concentration of photosensitizer with a lysated control samples.

T1 sequence (P30874 whole entry): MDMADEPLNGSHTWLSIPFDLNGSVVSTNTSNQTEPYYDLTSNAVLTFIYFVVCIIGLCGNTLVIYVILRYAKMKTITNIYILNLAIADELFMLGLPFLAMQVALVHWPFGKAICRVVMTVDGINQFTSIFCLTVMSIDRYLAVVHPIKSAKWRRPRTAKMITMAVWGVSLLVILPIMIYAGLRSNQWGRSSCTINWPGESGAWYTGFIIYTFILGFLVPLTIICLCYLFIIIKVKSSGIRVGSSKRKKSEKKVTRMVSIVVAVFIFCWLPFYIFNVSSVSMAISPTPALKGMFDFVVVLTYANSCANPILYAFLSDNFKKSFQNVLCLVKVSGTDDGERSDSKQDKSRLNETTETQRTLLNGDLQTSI

SMILES	fold higher potency than conjugate 1 (sst2; ratio of IC50 values, [125I]-SS14 displacement) [×]	full width at half maximum of the Q(0,0) absorption band [1] [nm]	full width at half maximum of the Soret absorption band [1] [nm]	maximum of fluorescence band [1] [nm]	maximum of the Q(0,0) absorption band [1] [nm]	maximum of the Soret absorption band [1] [nm]	ΦF, fluorescence quantum yield ([1]; relative method, Ce6 (0.18) as reference, excitation 408 nm)	kblA, rate constant of initial absorption bleaching ([2]; PBS pH = 7.4, 652 nm irradiation at 5 mWcm^-2, O.D. = 0.014 at 652 nm, aerobic, stirring)	ΦΔ, singlet oxygen quantum yield [3]	pKa, inflection point of pH titration curve ([4]; Fmax/A(λexc) versus pH, sigmoidal fit, PBS titrated with HNO3 and NaOH over pH 4.0-8.5, 0.8 µM, λexc = 408 nm)	fold higher accumulation in 1-octanol than in buffer ([5]; 1-octanol / PBS pH 7.4) [×]	logD ([5]; 1-octanol / PBS pH = 7.4, Poct/buffer = Coct/Cbuffer, stock 0.6 mM in DMSO, duplicates, read-out: LogP, logarithm of partition coefficient)	effect of Octreotide co-treatment (10^−5 M) on phototoxicity (K562 sst2+ cells [6])	PDT toxicity in K562 WT cells (K562 WT cells)	uptake in sst2+ cells compared to WT cells (factor) (K562 sst2+ cells [7])	IC50 (sst2; membrane preparations of K562 sst2+ cells, displacement by increasing concentrations of unlabeled compound, read-out: IC50, competition with specific binding of [125I]-SS14) [nM]	photostability [2]	pKa, inflection point of pH titration curve [4]	logD ([5]; pH 7.4)
C=Cc1c(C)c2cc3nc(c(CC(=O)O)c4[nH]c(cc5nc(cc1[nH]2)C(C)=C5CC)c(C)c4C(=O)O)[C@@H](CCC(=O)N[C@H](Cc1ccccc1)C(=O)N[C@H]1CSSC[C@@H](C(=O)N[C@H](C(=O)N[C@@H](CCCCN)C(=O)N[C@@H](CCCCN)C(=O)N[C@@H](CCCCN)C(=O)N[C@H](Cc2ccccc2)C(=O)N[C@H]2CSSC[C@@H](C(=O)N[C@H](C(=O)O)[C@@H](C)O)NC(=O)[C@H]([C@@H](C)O)NC(=O)[C@H](CCCCN)NC(=O)[C@@H](Cc4c[nH]c5ccccc45)NC(=O)[C@H](Cc4ccc(O)cc4)NC2=O)[C@@H](C)O)NC(=O)[C@H]([C@@H](C)O)NC(=O)[C@H](CCCCN)NC(=O)[C@@H](Cc2c[nH]c4ccccc24)NC(=O)[C@H](Cc2ccc(O)cc2)NC1=O)[C@@H]3C [Conjugate 2, Ce6-[Tyr3]-octreotate-K3-[Tyr3]-octreotate] (X1-[dF]CY[dW]KTCTKKK[dF]CY[dW]KTCT-OH; disulfide 2-7, 13-18)	~5	26	42	665	661	405	0.03	22.70 x 10^−2 J^−1 cm^2	0.59±0.03	6.28±0.035	> 600	2.82 ± 0.34	not inhibited by Octreotide co-treatment	comparable with the PDT activity on K562 sst2+ cells	no difference	–	–	–	–
C=Cc1c(C)c2cc3nc(c(CC(=O)O)c4[nH]c(cc5nc(cc1[nH]2)C(C)=C5CC)c(C)c4C(=O)O)[C@@H](CCC(=O)N[C@@H](CCCCN)C(=O)N[C@@H](CCCCN)C(=O)N[C@@H](CCCCN)C(=O)N[C@H](Cc1ccccc1)C(=O)N[C@H]1CSSC[C@@H](C(=O)N[C@H](C(=O)O)[C@@H](C)O)NC(=O)[C@H]([C@@H](C)O)NC(=O)[C@H](CCCCN)NC(=O)[C@@H](Cc2c[nH]c4ccccc24)NC(=O)[C@H](Cc2ccc(O)cc2)NC1=O)[C@@H]3C [Conjugate 1, Ce6-K3-[Tyr3]-octreotate] (X1-KKK[dF]CY[dW]KTCT-OH; disulfide 5-10)	–	–	–	–	–	–	–	–	–	–	–	–	–	–	–	68	higher photostability	5.38±0.0615	0.679 ± 0.04
